Source: patent publication US20250268984A1, “INTERFERON-BASED CANCER TREATMENT METHOD, AND PHARMACEUTICAL COMBINATION” (XIAMEN AMOYTOP BIOTECH CO., LTD., priority 2021, published 2025)

Tested on: transplanted liver cancer H22
Assay: Example 13: different administration orders of interferon and gemcitabine, transplanted liver cancer H22 in mice
Type: in vivo, BALB/c mice
Conditions: PEG-mIFN-α4 only, 1 microgram per mouse s.c. once a week
Method: PEG-mIFN-α4 was administered by subcutaneous injection on the back of the neck, with a dose of 1 microgram per mouse. The administration began on the day after grouping. In the PEG-mIFN-α4 only group, PEG-mIFN-α4 was administered once a week. In the PEG-mIFN-α4 combined with gemcitabine (administered at the same time) group, PEG-mIFN-α4 and gemcitabine were administered on the same day, once a week. In the PEG-mIFN-α4 combined with gemcitabine (PEG-mIFN-α4 was administered 72 hours after gemcitabine) group, gemcitabine was given 3 days before PEG-mIFN-α4, once a week. PEG-mIFN-α4 combined with gemcitabine (gemcitabine was given 72 hours after PEG-mIFN-α4) group, PEG-mIFN-α4 was given first, and gemcitabine was given 3 days after, once a week. In the normal saline control group, an equal volume of normal saline was given. Gemcitabine was injected intraperitoneally at a dose of 60 mg/kg.
SAS 9.4 software was used to compare the differences in tumor incidence between groups, and the statistical tests were all two-sided tests.
The tumor incidence of each group was calculated based on the tumor volume greater than or equal to 62.5 mm^, which is determined as positive for tumor occurrence. […] Mice determined to be negative for tumor development were confirmed by dissection, and no solid tumor was found in the axilla. […]

B1: PEG-mIFN-α4: deglycosylated recombinant mouse interferon α4 modified with 40 kD Y-type polyethylene glycol succinimide ester (YPEG-NHS); SEQ ID NO: 6 (protein)
chain: CDLPHTYNLGNKRALTVLEEMRRLPPLSCLKDRKDFGFPLEKVDNQQIQKAQAILVLRDLTQQILNLFTSKDLSATWNATLLDSFCNDLHQQLNDLKACVMQEPPLTQEDSLLAVRTYFHRITVYLRKKKHSLCAWEVIRAEVWRALSSSTNLLARLSEEKE
modifications: 40 kD Y-type PEG; deglycosylated; peginterferon murine alpha 4
Q: With B1 as the molecule, how does the “Median survival period (time after tumor inoculation, day)” value (by day 151) read?
A: Its value is 38.0 days.

Q: What about the tumor incidence (day 151 after tumor inoculation, tumor volume ≥62.5 positive) of the same molecule?
A: Its tumor incidence is 100.0%.
